{"source": "IntAct's records for PubMed 17158164", "parents": {"B1": {"name": "TATA-box-binding protein (Homo sapiens), P20226 (parent)", "chain": "MDQNNSLPPYAQGLASPQGAMTPGIPIFSPMMPYGTGLTPQPIQNTNSLSILEEQQRQQQQQQQQQQQQQQQQQQQQQQQQQQQQQQQQQQQQQQAVAAAAVQQSTSQQATQGTSGQAPQLFHSQTLTTAPLPGTTPLYPSPMTPMTPITPATPASESSGIVPQLQNIVSTVNLGCKLDLKTIALRARNAEYNPKRFAAVIMRIREPRTTALIFSSGKMVCTGAKSEEQSRLAARKYARVVQKLGFPAKFLDFKIQNMVGSCDVKFPIRLEGLVLTHQQFSSYEPELFPGLIYRMIKPRIVLLIFVSGKVVLTGAKVRAEIYEAFENIYPILKGFRKTT", "partner": "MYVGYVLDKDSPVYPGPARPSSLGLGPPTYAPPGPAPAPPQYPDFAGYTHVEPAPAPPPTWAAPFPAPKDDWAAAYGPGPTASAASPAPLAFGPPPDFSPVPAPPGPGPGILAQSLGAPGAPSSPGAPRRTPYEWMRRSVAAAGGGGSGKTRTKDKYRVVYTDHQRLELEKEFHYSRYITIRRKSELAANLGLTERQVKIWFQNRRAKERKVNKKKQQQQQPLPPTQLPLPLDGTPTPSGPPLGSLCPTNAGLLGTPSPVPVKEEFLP"}}}
{"variants_of": "B1", "settings": "with cdx1_mouse Cdx1, P18111"}
{"variant": "MDQNNSLPPYAQGLASPQGAMTPGIPIFSPMMPYGTGLTPQPIQNTNSLSILEEQQRQQQQQQQQQQQQQQQQQQQQQQQQQQQQQQQQQQQQQQAVAAAAVQQSTSQQATQGTSGQAPQLFHSQTLTTAPLPGTTPLYPSPMTPMTPITPATPASESSGIVPQLQNIVSTVNLGCKLDLKTIALRARNAEYNPKRFAAVIMRIREPRTTALIFSSGKMVCTGAKSEEQSRLAARKYARVVQKLGFPAKFLDFKIQNMVGSCDVKFPIRLEGLVLTHQQFSSYEPELFPGLFYRMIKPRITLVIFVSGKVVLTGAKVRAEIYEAFENIYPILKGFRKTT", "note": "[I292F;V301T;L303V]", "effect of a mutation on the interaction": "with no effect"}
